Source: article PMC3607249

Biological target: Sulfolobus islandicus Orc1-1 Walker B mutant E147A (ATP-bound) (Sulfolobus islandicus)
Experiment: AUC

- stoichiometry N: 2
Substance: Sulfolobus islandicus Orc1-1 Walker B mutant E147A (ATP-bound) (natural protein)
